Reference: paper PMC3874162 (Nucleic Acids Research, 2013)

Key:
native gel or EMSA = molecular target: the molecule itself; experiment: native gel or EMSA
SEC-MALS = molecular target: the molecule itself; experiment: SEC-MALS

Row | Protein | Kd (native gel or EMSA) [nM] | stoichiometry N (SEC-MALS)
1 | Cdc13 (full-length S. cerevisiae Cdc13) (natural protein, UniProt P32797 1-924, looked up) MDTLEEPECPPHKNRIFVSSSKDFEGYPSKAIVPVQFVALLTSIHLTETKCLLGFSNFERRGDQSQEDQYLIKLKFKDRGSERLARITISLLCQYFDIELPDLDSDSGASPTVILRDIHLERLCFSSCKALYVSKHGNYTLFLEDIKPLDLVSVISTISTKSTNSSKHSSSELISECDLNNSLVDIFNNLIEMNRDEKNRFKFVKLIHYDIELKKFVQDQQKVLSQKSKAAAINPFFVPNRLGIPYIESQNEFNSQLMTLNVDEPTTDISNMGEEMHDSADPIEDSDSSTTSSTGKYFSSKSYIQSQTPERKTSVPNNWHDDDSGSKRKRKLSFHSPNASSIRKAISYEQLSLASVGSVERLEGKIVGMNPPQFASINEFKYCTLKLYFTQLLPNVPDKVLVPGVNCIEIVIPTRERICELFGVLNCQSDKISDILLLEKPDRISVEVERILWDNDKTASPGMAVWSLKNISTDTQAQAQVQVPAQSSASIDPSRTRMSKMARKDPTIEFCQLGLDTFETKYITMFGMLVSCSFDKPAFISFVFSDFTKNDIVQNYLYDRYLIDYENKLELNEGFKAIMYKNQFETFDSKLRKIFNNGLRDLQNGRDENLSQYGIVCKMNIKVKMYNGKLNAIVRECEPVPHSQISSIASPSQCEHLRLFYQRAFKRIGESAISRYFEEYRRFFPIHRNGSHLAKLRFDEVKHEPKKSPTTPALAEHIPDLNADVSSFDVKFTDISSLLDSSARLPRPQQTHKSNTLYSCEGRIIAIEYHASDLCFHITNELPLLQTRGLAPERVLQLHIITSKNFAYFFNRSSAYLQRQPLEEKYTQLAQFLGHSFKFNITSSLTLFPDTTVALQIWCPIECTFRELQQQLAHPKVAAAPDSGSLDCAINATVNPLRLLAAQNGVTVKKEEDNDDDAGAVPTS | 5.1 | 2
2 | Cdc13-MOB (middle OB-fold domain, residues 344-496) (domain or fragment, S. cerevisiae, UniProt P32797 344-496, looked up) KAISYEQLSLASVGSVERLEGKIVGMNPPQFASINEFKYCTLKLYFTQLLPNVPDKVLVPGVNCIEIVIPTRERICELFGVLNCQSDKISDILLLEKPDRISVEVERILWDNDKTASPGMAVWSLKNISTDTQAQAQVQVPAQSSASIDPSRT |  | 2
